Among the data in PMC5505021 are percentage of HSP90β-JEV binding by FCM (0 μg/ml anti-HSP90β mAb), percentage of HSP90β-JEV binding by FCM (with 20 μg/ml anti-HSP90β mAb) and percentage of HSP90β-JEV binding by FCM (with 100 μg/ml anti-HSP90β mAb) values, retold here.

The test has as its target heat shock protein 90β (African green monkey (endogenous in Vero)). The test is described as follows: flow cytometry on cells. Background: A flow cytometer gives signals particle by particle.

Turning to “Japanese encephalitis virus strain SA14, purified viral particles (complex)”, the percentage of HSP90β-JEV binding by FCM (0 μg/ml anti-HSP90β mAb) came to 76.2%, the percentage of HSP90β-JEV binding by FCM (with 20 μg/ml anti-HSP90β mAb) was found to be 19.1% and the percentage of HSP90β-JEV binding by FCM (with 100 μg/ml anti-HSP90β mAb) is 10.4%.
